The record followed here is paper PMC4288177.

The target of data set [1] is T1, DnaA (AaDnaA, truncated) (Aquifex aeolicus, UniProt O66659 77-399).
T1 sequence: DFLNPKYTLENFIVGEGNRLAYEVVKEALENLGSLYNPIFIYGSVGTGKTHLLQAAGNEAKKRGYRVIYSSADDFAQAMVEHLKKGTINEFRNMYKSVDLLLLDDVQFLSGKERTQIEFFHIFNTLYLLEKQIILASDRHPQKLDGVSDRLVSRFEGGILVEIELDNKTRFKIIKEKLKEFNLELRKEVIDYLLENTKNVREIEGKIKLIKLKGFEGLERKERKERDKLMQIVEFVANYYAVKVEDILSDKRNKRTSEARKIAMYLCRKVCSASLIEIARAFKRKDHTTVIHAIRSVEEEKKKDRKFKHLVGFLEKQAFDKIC
Put plainly: smPIFE.

In data set [2] the target is T1, DnaA (AaDnaA, truncated). Put plainly: smPIFE. The source holds these as a separate data set.
Data set [3] concerns the target T1, DnaA (AaDnaA, truncated). Put plainly: smPIFE. This is another data set of the same source.
For data set [4], the target named is T1, DnaA (AaDnaA, truncated). Put plainly: smFRET.
Data set [5] has as its target T1, DnaA (AaDnaA, truncated). Put plainly: smPIFE. The source holds these as a separate data set.
In data set [6] the target is T1, DnaA (AaDnaA, truncated). Put plainly: smPIFE. The source holds these as a separate data set.

B1: pdT21 (Cy3 only, PIFE) (mixed)
DNA 1: TGGCGACGGCAGCGAGGCTTTTTTTTTTTTTTTTTTTTT
DNA 2: GCCTCGCTGCCGTCGCCA
Regarding B1, the binding result with DnaA (AaDnaA, truncated) [1] is “binds”.

B2: pdT3+17 (Cy3 only) (mixed)
DNA 1: TGGCGACGGCAGCGAGGCTTTTTTTTTTTTTTTTTTTTT
DNA 2: GCCTCGCTGCCGTCGCCA
modifications: C6-amino-dT at position 22
For the molecule B2, the binding result with DnaA (AaDnaA, truncated) [2] is “binds”.

B3: pdTcontrol (Cy3 only) (mixed)
DNA 1: TGGCGACGGCAGCGAGGCTTTTTTTTTTTTTTTTTTTTT
DNA 2: GCCTCGCTGCCGTCGCCA
modifications: C6-amino-dT at position 19
Consider B3, for which the binding result with DnaA (AaDnaA, truncated) [3] was “binds”.

B4: pdT21 (mixed)
DNA 1: TGGCGACGGCAGCGAGGCTTTTTTTTTTTTTTTTTTTTT
DNA 2: GCCTCGCTGCCGTCGCCA
Consider B4, for which the binding result in the data set with DnaA (AaDnaA, truncated) [4] is recorded as “binds”.

B5: 5'-OP21 (Cy3 only) (mixed)
DNA 1: TTTTTTTTTTTTTTTTTTTTTCGGAGCGACGGCAGCGGT
DNA 2: ACCGCTGCCGTCGCTCCG
Turning to B5, the binding result in the data set with DnaA (AaDnaA, truncated) [5] is on record as “binds”.

B6: 3'-OP21 (Cy3 only) (mixed)
DNA 1: TTTTTTTTTTTTTTTTTTTTTCGGAGCGACGGCAGCGGT
DNA 2: ACCGCTGCCGTCGCTCCG
modifications: C6-amino-dT at position 21
With B6, in the data set with DnaA (AaDnaA, truncated) [6], the binding result is listed as “binds”.
